The text below walks through data of article PMC7801690, “Crystal structure of a thermophilic fungal cyanase and its implications on the catalytic mechanism for bioremediation” (Scientific Reports, 2021).

The test system of one data set is N#CO. The data set can be described thus: purified protein. As to conditions: apparent Km; 0.05 to 3.0 mM potassium cyanate; bicarbonate-dependent.
In data set [1] the target is cyanase from the thermophilic fungus Thermomyces lanuginosus (Tl-Cyn) (Thermomyces lanuginosus). Nature of the data set: crystal structure; sitting-drop vapour diffusion at 20 °C, protein 13 mg/mL; reservoir 2% Tacsimate (pH 8.0), 0.1 M Tris (pH 8.5), 16% PEG 3,350; malonate and formate bound in the active sites; 2.2 Å.

Source text for N#CO: cyanase activity (ammonium release), Lineweaver-Burk on Tl-Cyn

Turning to Tl-Cyn (Thermomyces lanuginosus), in the data set on N#CO, the Km came out at 0.36 ± 0.04 mM.
In data set [1], “cyanase from the thermophilic fungus Thermomyces lanuginosus (Tl-Cyn) (enzyme)” displayed a stoichiometry N of 10.
